Laboratory results reported in doi:10.1101/2023.05.17.541065.

T1: EIL1-GST (tomato, UniProt Q94FV4 1-610)
T1 sequence: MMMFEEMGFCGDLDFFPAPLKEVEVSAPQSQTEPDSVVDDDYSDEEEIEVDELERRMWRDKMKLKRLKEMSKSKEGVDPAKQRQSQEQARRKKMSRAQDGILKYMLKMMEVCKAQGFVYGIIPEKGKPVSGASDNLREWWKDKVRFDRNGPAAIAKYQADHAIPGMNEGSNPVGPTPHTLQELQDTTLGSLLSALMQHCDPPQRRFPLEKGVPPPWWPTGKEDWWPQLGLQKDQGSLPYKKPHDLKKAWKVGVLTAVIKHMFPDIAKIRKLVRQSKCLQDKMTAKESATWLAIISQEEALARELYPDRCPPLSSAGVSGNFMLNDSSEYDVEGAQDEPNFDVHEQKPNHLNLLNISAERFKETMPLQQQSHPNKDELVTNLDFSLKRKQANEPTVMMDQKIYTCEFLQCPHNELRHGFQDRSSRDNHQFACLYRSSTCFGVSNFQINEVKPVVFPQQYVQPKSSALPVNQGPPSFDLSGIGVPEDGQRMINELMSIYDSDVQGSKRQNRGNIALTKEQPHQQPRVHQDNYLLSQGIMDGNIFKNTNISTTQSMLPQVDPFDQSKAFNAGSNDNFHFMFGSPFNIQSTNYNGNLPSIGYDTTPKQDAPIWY


Columns and labels:
MYC2-TF = MYC2-TF (tomato, UniProt A0A3Q7HRZ6 1-689); assay: EMSA
EIL1-GST = molecular target: T1, EIL1-GST; assay: EMSA

MYC2-TF, sequence (A0A3Q7HRZ6 whole entry): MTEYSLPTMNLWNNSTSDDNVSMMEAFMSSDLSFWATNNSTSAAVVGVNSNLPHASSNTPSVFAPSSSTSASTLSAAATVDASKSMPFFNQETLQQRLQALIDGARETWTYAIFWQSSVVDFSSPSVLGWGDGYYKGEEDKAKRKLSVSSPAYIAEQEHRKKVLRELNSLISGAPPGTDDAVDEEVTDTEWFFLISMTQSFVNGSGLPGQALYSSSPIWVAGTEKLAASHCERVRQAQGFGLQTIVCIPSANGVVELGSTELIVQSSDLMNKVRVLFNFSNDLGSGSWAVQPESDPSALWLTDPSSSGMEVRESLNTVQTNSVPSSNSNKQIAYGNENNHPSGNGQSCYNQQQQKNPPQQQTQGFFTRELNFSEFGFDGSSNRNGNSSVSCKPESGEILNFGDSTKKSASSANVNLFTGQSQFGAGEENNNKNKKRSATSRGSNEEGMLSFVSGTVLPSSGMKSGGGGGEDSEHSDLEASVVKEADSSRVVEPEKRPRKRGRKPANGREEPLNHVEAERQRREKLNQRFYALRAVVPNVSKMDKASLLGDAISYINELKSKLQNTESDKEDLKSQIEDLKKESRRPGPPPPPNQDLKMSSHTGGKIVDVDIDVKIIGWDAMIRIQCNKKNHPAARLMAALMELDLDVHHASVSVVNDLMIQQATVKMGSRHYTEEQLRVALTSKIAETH

Binder	binding result (MYC2-TF)	binding result (EIL1-GST)
CYP94B promoter G-box probe (dsDNA) DNA 1: TTTACGCGCACAAGAAACACGTGATTTAAATGCATAATTA DNA 2: TAATTATGCATTTAAATCACGTGTTTCTTGTGCGCGTAAA	binds	–
CYP94C1 promoter EBS probe (dsDNA) DNA 1: TGTGTCTTTTTTCAATAAAGGTGATGTATCGGGACAAGATGCATCGGACGCTG DNA 2: CAGCGTCCGATGCATCTTGTCCCGATACATCACCTTTATTGAAAAAAGACACA	–	binds
